Results published in US20220267417A1 (UNIVERSIT GRENOBLE ALPES, published 2022).

T1: OprF protein of Pseudomonas aeruginosa on bacteria of the CHA strain (Pseudomonas aeruginosa, UniProt P13794 25-350)
T1 sequence (looked up): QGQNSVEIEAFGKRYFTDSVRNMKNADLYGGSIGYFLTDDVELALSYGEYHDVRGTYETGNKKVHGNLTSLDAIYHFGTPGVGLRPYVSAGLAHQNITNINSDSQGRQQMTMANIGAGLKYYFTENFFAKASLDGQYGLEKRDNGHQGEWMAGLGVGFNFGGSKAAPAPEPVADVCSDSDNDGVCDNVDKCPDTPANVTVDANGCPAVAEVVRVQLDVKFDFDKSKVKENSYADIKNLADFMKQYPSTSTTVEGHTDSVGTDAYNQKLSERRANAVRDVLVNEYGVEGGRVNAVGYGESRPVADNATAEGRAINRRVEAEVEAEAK

T2: OprF protein of Pseudomonas aeruginosa with N-terminal polyhistidine tag, in proteoliposomes (Pseudomonas aeruginosa, UniProt P13794 25-350, limits assumed)
T2 construct: Made by cell-free synthesis (E. coli lysate) in the presence of liposomes; inserted in the liposomal membrane, found oligomerized, in open and closed channel conformations; Genbank AFM37279.1 is printed for OprF in general; The sense primer starts at the ATG of the gene, so the signal peptide may be part of the construct; also called porin OprF; OprF membrane antigen; not shown: N-terminal …
T2 sequence (looked up): T1 sequence (looked up)

B1: scFv fragment F8 (scFv)
scFv: QVQLEQSGAEVKQPGASVKVSCKASGYSFSSYGMNWVRQAPGQRPEWLGWINADTGKSTYAPGFKERFTFSLDTSVSTAYLTISSLKAEDTAVYYCVRSCRGGVCQLYHWGQGVLITVSSGGGGSGGGGSGGGGSEIELTQSPTSIAVSRGERVTVSCMASSSVRTGYLHWYQQKPGFPPRLLVYGTSSLPSGVPARFSGSGSGTSYTLTISSVEPEDVAHYYCQQGHTIPLTFGGGTKVEIKHHHHHHEQKLISEEDL
notes: Macaque scFv, format VH-(G4S)3-VL-6xHis-c-myc
B2: scFv fragment G9 (scFv)
scFv: QVQLEQSGAEVKHPGASVKVSCKASGYSFSTYGMNWVRQAPGQRPEWMGWINADTGKSTYAPGFKERFTFSLDTSVSTAYLTISSLKAEDTAVYYCVRSCRGGVCQLYHWGQGVLITVSSGGGGSGGGGSGGGGSELQMTQSPTSMAVSQGERVTISCTASSSVNTNYLHWYQQKPGFPPRLLVYGTSSLVAGVPARFSGSGSGTSYTLTISNMEAEDAANYYCQQGNTIPLTFGGGTKVEIKHHHHHHEQKLISEEDL
notes: as for B1
B3: scFv fragment E7 (scFv)
scFv: QVQLEQSGAEVKQPGASVKVSCKASGYSFSSYGMNWVRQAPGQRPEWMGWINADTGKSTYAPGFKERFTFSLDTSVSTAYLTISSLKAEDTAVYYCVRSCRGGVCQLYHWGQGVLITVSSGGGGSGGGGSGGGGSDIELTQSPTSIAVSQGERVTISCTASSSVTTGYFHWYQQKPGFPPRLLVYGTSSLPSGVPARFSGSGSGTSYTLTISNMEAEDAAHYYCQQGHTIPLTFGGGTKVEIKHHHHHHEQKLISEEDL
notes: as for B1
B4: scFv fragment F10 (scFv)
scFv: QVQLEQSGAEVKQPGASVKVSCKASGYSFNTYGMNWVRQAPGQRPEWMGWINADTGKSTYAPGFKERFTFSLDTSVSTAYLTISSLKAEDTAVYFCVRSCRGGVCQLYHWGQGVLVTVSSGGGGSGGGGSGGGGSDIELTQSPTSMAVSQGERVTISCTASSSVSTNYLHWYQQKPGFPPRLLVYRTSSLAPGVPARFSGSGSGTSYTLTISNMEAEDAAHYYCQQGNTIPLTFGGGTKVEIKHHHHHHEQKLISEEDL
notes: as for B1

Target: T1, OprF protein of Pseudomonas aeruginosa …
Test: cell-based or functional assay

Binder	cytotoxicity of P. aeruginosa towards macrophages (LDH release, A490-A680 nm)
B1	~0.67 fraction of cytotoxicity reduced
B2	~0.67 fraction of cytotoxicity reduced
B3	~0.67 fraction of cytotoxicity reduced

Target: T2, OprF protein of Pseudomonas aeruginosa …
Test: ELISA on coated OprF proteoliposomes, anti-c-myc-peroxidase detection, one site-specific binding fit
Protocol: By way of example, the dissociation constant Kd is determined for the scFv fragments E7, F8, F10 and G9, with an ELISA method.
For this purpose, 100 μl of OprF proteoliposomes (containing an OprF concentration of 1 μg/ml) contained in fixation buffer (0.1 M sodium carbonate, 0.1 M sodium bicarbonate) are fixed at the bottom of the wells of a 96-well plate (Thermo Scientific®) overnight at 4° C. and under stirring. The wells are then blocked for 1 h at 21° C. with 100 μl of TBS Tween (TBST) buffer containing 5% milk. After washing the wells with 100 μl of TBST buffer, 100 μl of scFv fragment (E7, F8, F10 or G9), at 1:50; 1:200; 1:400; 1:800; 1:1600 and 1:3200 dilutions in TBST buffer, are added to the corresponding wells and incubated for 1 h at 37° C. under stirring. After washing the wells, 100 μl of anti-c-myc-Peroxidase antibody (Roche) (1:10000 dilution in TBST buffer containing 5% milk) is added to the wells and incubated for 1 h at 37° C. under stirring. After washing the wells 3 times, 50 μl of TMB is added to the wells and the plate is incubated at ambient temperature and protected from light for approximately 15 min. 50 μl of 1 M HCl is then added and the absorbance of each well is measured at 450 nm. These absorbance data are then analyzed using the GraphPad Prism software (non-linear regression analysis, “one site-specific binding” equation) in order to calculate the dissociation constant Kd of each scFv fragment tested. By way of comparison, a measurement is also made on the buffer only.

Binder	Kd [nM]
B1	211
B4	1490
B2	295
B3	213
